A short description of this data set: label from the status in PepcDB records.
Regarding “MSIPLLEYAPSSQNQRVEGYEVPNEDTPTIYRLAAAIDDADVDAIIWAGYRQIFSEHLIIKSNRQSFLESQLRNRAINVRDFIRGLGKSEVYRTQVADLNSNYRLVDITLKRFLGRAAYNQDEEIAWSIVIGSQGLHGFIDALLDSDEYRENFGDDIVPYQRRRYKDRPFNLVNPRYNAYWRDRQTLNALGGRSFYSARTSGTLTKDDIRRAIPANFMALAGKILTPERNYQRTIASVTSQIKDIKIPDTSREVTTPEVTVKPVAVALPYRYIPGNKTT”, the protein production entry is “failed”. Turning to “MSISISSIPDLTTVRARHPEAIAEAAARRVRRPLIGDSGRLMIVAADHPARGALGVGDRGLAMANRADLLERLCTALSRPGVDGVLATADVLEDLLLLGVLENKVVMGSMNRGGLAGAAFEMDDRFTGHRAEDIARLRFDAGKLLLRIDYDDPGSLTTMEASARAVDAMAARELPLFVEPFISRRIDGRVRNDLSAEAVTRSVAIASGLGGTSAYTWLKLPVTRNPDDMAEVLETSTLPAVLLGGDIGGSPADQTAAYERWRKALRLPTVQGMVVGRSLLYPAGGSVEEAVDTAVGLL”, the protein production entry is on record as “failed”. For “MSISSHDVGRTYPTTDPYLVTAEKIRELATALGDNAPAYRGDDPIAPPTFAMVLASRAWEALFDDEQLDLRLEHMIHTDQSFHWIRPLHEGDEVTAALTITSVRTRGNTDIIGINVSLDHVDGEHLGNATSTLWHTRPEGNA”, the protein production entry is given as “failed”.

Turning to “MSKDGLSNDQVSSMKEAFMLFDTDGDGKIAPSELGILMRSLGGNPTESQLKSIITTENLSSPFDFNRFLDLMAKHLKTEPFDRQLRDAFKVLDKEGTGFVAVADLRHILTSIGEKLQPSEFDEWIKEVDVGSDGKIRYEDFIARMVAK”, the protein production entry was “failed”. “MSKDSNKIIEQSREIGISIIMPLYNVEEVILETLESIHEQTFDSYEVLLIDDGSTDKTIEIVTEYIKDKPRFKLYTQPNGGPASARNHGLRLAIGMYICFVDSDDILPNYSLQLMYDGAISTGAKLITGATKRFNSEGEWFIPMHIQYNIAKPGMKTLLKNPELFYSIGPCAKLYHHSLIDGVFFPENIRYGEDQPFVLHALLQAKDIYTVEKVVYYYRLRDGESQSLTQSVDKDPIRILKSVFQIFDYGEEELKKNNTDYEVALKYYQRVSSVELWGALRAAIESKKSENQKIAFTMTLDWLKTKSDDFLNIIPSFRYFLLFSSIERVRYITKDNKENYRNLIGYLWSRQGEEAKIAFRKTYPIPMKAALQIIENNNWRDARKISFKFIVRRKFKAPILIRKISRGIIFRIATLMPRKKNQVILATERSTTLEGNLLAIYDYMFYNNMPQKVYVFLRKNRNWFEMFQLYYTLGRTKTIVLDDYYNKIYGLKFNKNTHVVQSWHATGAFKKFGFSALEGTDANTEEFETRAHSPYTDVLVSSEGIIPEYMEAFRKQANQIKPIGVPRTDVFFDDEYVNYTKEKYMKMYPQLRDKKILLYAPTFRGGPNERFNYSVVLDIAALKKELGDTHILILKFHPVIKNVSFNVEEDDPFILNLTLNNDINDLMLFSDALITDYSSVIFEFSLMNKPIYFFAYDIDDYLDERGFYFDYKATIPGEVFRDTPSLIEAVKSGLYNYDELEIFKKKFVGSLDGNSTKRFVETYIGKANEKVKDILEHHHHHH”: the protein production entry is “not failed”. For “MSKEMRSRLFSILKVVFAVALFSIVVFTLYKELSHINIKETIQSFGKINRVWLVALFVIGGASIIVLSMYDVILAKSLNLKISLLKTIRVGYIVNALNAVVGFGGFIGASVRFLFYKNATDDKRALLHTISIVLISMLTGLSLLSILVVIHVFDVSHLFTPYPWIKWLMYVVALFLPVFVIFTILRPVQENQKLLGVYCTIVSSIEWLVAALVLYMALTMVGVHVPISIFMGIFIIAALSGLISFIPGGFGTFDLVVLLGLKHLNIDEESIVLGLLLYRFAYYLFPVLVALILSTFEFRGTAKRYWEDARILVPVRDMTSLLSSYQKDIIARAPSFSIAILLMFTSLLFFLNNLTIIYDGLYDPNHYIYYIIVSVHTCACLLLLLNVVGVYRLSKRAILFSIISIILIFIVTAYTYASFILLSWLVVMLILLFIFYRRARVIKRPFRYLKLCLSFIMGALVLYINHIVIASTFYTLDIYHIEIDTSILRYYFWFTILLVAVIVGLIVWWFEYRYRISNTREDTKICASIVKQYGGNYLSHLMYSGDKKFFINENEDAFIMYRYQRNAYIVLGDPIGNPQSFYSLLESFYQEAEYLGYDIIFYQVTDRNMSLYHSFGNQFFKLGEEAVIDLNEFKISGKKKRGLRATLNKLDDLKYTFEVIEPPFTQALITDLKTISDEWLADKKEMHFSVGSFNESYLSKAPIAIIKDSDGLIIAFCTLMPTYYKGTISVDLIRWKPDCTLPLMDGLYLNMLLWSQKQNYQHFNMGMATLSNVGQLPYSFYGERIAGRVFEHFNGLYRFQGLRKYKEKFNPNWEPRFLVYRKRHSLWLSMIKVMRVIRKHK”, the protein production entry is “failed”. Turning to “MSKHKFMIYFLTTTLVLPTFTTSIAHAEDTNEDDKMKSSSTQEEQTNHNEDVNDNNTNEASQPDDTQSDNTSSEAPTKEDSKNKIKREKSKSSNTSSEEKDDDNTSVSRSHQKRDKDTNNTYRTPLSPIFDATHSSGLPASNFLNPDLYQNGFSLTHLIASLFNFDSDISDYEQPASTNETDDDTHSTNEQDTDSQDQDQTEHSASSSDTTNREHDDVQQSSEKANQSDKTSRQDEIDTKQQSTANQDKDDASVSKALDAIDDFVSDETDDDKDNQGSNNTDTTNHQSYNDDTSTDSKNDSSKTSSSDSNSLSESALDTVLDKYSEDAKKTHQDFESSKKDNETNTSKGEKTKNNTTKASNPQLPTKKELEHKTTPAQSFEDDFKQSNTRSTSLFQTLPQLNGSDVTDGDITVVENKGTRDFIKSIAKDAHKIGQDKDLYASVMIAQAILESSSGNSTLAQAPNYNLFGIKGSYKGQSVNFNTLEAGSDNSMFSINAGFRKYPSTKASLEDYADLIKNGIDGNPTIYKPTWKHEAIDYRDATRHLSRTYATDPNYATKLNSLIKHYHLTDFDKKKMPDLDRYAKQTSSGEDASGSEFKSFEITDSSSPYPQGQCTWYVYERVQQFGKKVGSDWGDAHNWDNRAESDNYDVSQTPSTHSAVVFEAGQAGAHDIYGHVAFVEKVNKDGSIVISESNVKGLGIVSYRTIDASTAEDLHYIEPK”, the protein production result is recorded as “failed”.

As to “MSKIEDIRKFYARLMAANAASSDPRLEQVFATVPREAFLGPGPWTIVAGSGRVTTPSADPAHIYQNVLVALDADKGINNGEPFLHAMWIGKLAPKPGEAVTHVGAGTGYYSAVLARLVSPGGTVTAFELEGRLADLARKNLEIYGNATVIHGDAVTRPLPPSDIIYVNAGVVAPPVGWLKALRPGGRMIFPWRPSERVPLAVMVTRTEKGFACDPFMRSWFIPCIGASVADLAAKIPTPEQATRSRSIWLTQHKAPDRTATAIFGDVWFSTKDVRAKPGS”, the protein production result is “failed”. With “MSKIEIFEAAGCCATSSVVVSDEAVKWNASAEWAKKHGVNIQRYSLAKNPQQFLNTPVIRAFLNTSGMESLPATLLDGQLVMAGKLPSREDIARWAG” the entry was “not failed”; with “MSKIFNEELAVIEAAAIAYLTAFNRADIPAVIATYTDDGVLMGPGRPAAVGKDELAEVYLSVFETVGFDMAYEIKEVVQTSADWAFVRSATEGTETNKATGVVTPAAYQELFLLRKSATGSWQTARYCTSKISP”, “not failed”; with “MSKITFKDIYIDGNKITEDSRKAIYLLPPQPLKYASNTWIYKTMPTMNQWLKDIEVQKKMHLNQSSYHLSFSFPANEKIDEVLLEKIRELGFQIGVLELYVIEAKALKELSRKRDVDIQLVSSNNINDYLHVYDAFARPFGDSYANMVKQHIYSSYNLDDIERLVAYVNHQPVGIVDIIMTDKTIEIDGFGVLEEFQHQGIGSEIQAYVGRMANERPVILVADGKDTAKDMYLRQGYVYQGFKYHILKENI”, “not failed”. For “MSKKKGLSAEEKRTRMMEIFSETKDVFQLKDLEKIAPKEKGITAMSVKEVLQSLVDDGMVDCERIGTSNYYWAFPSKALHARKHKLEVLESQLSEGSQKHASLQKSIEKAKIGRCETEERTRLAKELSSLRDQREQLKAEVEKYKDCDPQVVEEIRQANKVAKEAANRWTDNIFAIKSWAKRKFGFEENKIDRTFGIPEDFDYID”, the protein production entry is listed as “failed”. With “MSKPPPKPVKPGQVKVFRALYTFEPRTPDELYFEEGDIIYITDMSDTSWWKGTCKGRTGLIPSNYVAEQAESIDNPLHEAAKRGNLSWLRECLDNRVGVNGLDKAGSTALYWACHGGHKDIVEVLFTQPNVELNQQNKLGDTALHAAAWKGYADIVQLLLAKGARTDLRNNEKKLALDMATNAACASLLKKKQQGTDGARTLSNAEDYLDDEDSD”, the protein production entry is given as “failed”. For “MSKQLLALNIDGALLRSNGKIHQATKDAIEYVKKKGIYVTLVTNRHFRSAQKIAKSLKLDAKLITHSGAYIAEKIDAPFFEKRISDDHTFNIVQVLESYQCNIRLLHEKYSIGNKKKVNSNLLGKALIHPSDPIFYPVQFVESLSDLLMDEPVSAPVIEVYTEHDIQHDITETITKAFPAVDVIRVNDEKLNIVPKGVSKEAGLALVASELGLSMDDVVAIGHQYDDLPMIELAGLGVAMGNAVPEIKRKADWVTRSNDEQGVAYMMKEYFRMQQRKGFLDKFHMKRV” the value was “failed”; for “MSKRDYYQVLGVPRTASEDDLKKAYRRCAMKYHPDRNPGDAAAEAAFKECKEAYEVLADTKKRKLYDTHGHAAFEHGVGSGNTPDMNDIFGDIFGNIFGGARASRRGADVGYMVELDLEEAVAGVERQIQIPTLVECTHCHGSGSEDGHVETCGTCRGSGQVRIQRGIFAMQQTCPHCGGRGVIIRNPCKVCNGAGRVEDHKTLSVKIPAGVDNGDRIRLSGEGEQGPDGVPPGDLYVEVRVREHPIFQRDGDDLHCEVPVRISQAALGDIVRVATLDGEAEIRIPAETQSGKLFRLRGKGVRSVRSRTEGDLYCRIVVETPVNLTAEQRKLLEQFEMTFAGEDARKHSPKSATFLDGVKSFWDRMTS”, “failed”; for “MSKREDEGCARKRRTEAGQRSEDCMNPNSVVISAFKVFQQELDTRYDKYERLVKISRDVTIESKRTIFLLHRVASVPDVEEILNEAEVKLDGVRQKIGQIAEELRGEDLHQFHRAFTPGIQEYVEAVSFHHFIRHRSLISLEEINARLVFIRDNNKAVGEGTFSSPCVLTFQITPTDYLLGVADLTGELMRMCISSVGNGDMDTPFQLSGFLRQIHDGFSLIGNTGPYEVSKKLHALRQSLGKVEDACYTLRVRGSEIPKHMLADVFSSRAAHIDPDDAMA”, “not failed”.

Turning to “MSKVEQNAQHNIQQTSPNAAVQSGLQEWHRIIAEADWERLPDLLAEDVVFSNPSTFDPYHGKGPLMVILPAVFSVLENFQYARHFSSKSGYVLEFNANMGDELLTGVDLIEFNDAGKITDLVVMMRPASVVIDLSVEVGKRIAAAQS”, the protein production entry was “not failed”. As to “MSKVIFALVLVVVLVACINATYVEFEEAYAPVDCKGQCTTPCEPLTACKEKCAESCETSADKKTCRRNCKKADCEPQDKVCDACRMKCHKACRAANCASECPKHEHKSDTCRACMKTNCK”, the protein production result is given as “not failed”. Take “MSKVLQISSAIPELDYANIPKEIIPFLASYNLIPQLLSQRIIESAIAPITCTQAEISHALDQFYQHWDLTTAEKIKDWCLRYGLNAEKLKLLATRKLRVEKFKQINWRHQLESYFLKRKKYLDRVIYSLIQTENKSVVNELFFRIAEGEDSFAELARKYSQGAEADRGGIIGPVELGSITPNFAQLLYTSQVGVVQPPVAFGNTWVIVRVEKLIPAQLDDFMRQRLLQENFEDWFQQQLNQLSPEEKIWMGINPKSDQVQEMA”: the protein production result is recorded as “failed”.

Source of the values: a protein production outcome set (Wang et al. 2014).
